# US7897142B2, “Peptide based-compounds” (GE Healthcare AS, priority 2004, dated 2011)
# Positions of bridges follow the written chain, without caps; N, C: chain ends. Residues, ends and D or L forms follow the SMILES beside them. *: point of attachment. X1 = CC[N+]1=C(/C=C/C=C/C=C2/N(CCCCCC(=O)*)c3ccc(S(=O)(=O)O)cc3C2(C)C)C(C)(C)c2cc(S(=O)(=O)[O-])ccc21; X3 = C[N+]1=C(/C=C/C=C/C=C2/N(CCCCCC(=O)*)c3ccccc3C2(C)C)C(C)(C)c2cc(S(=O)(=O)[O-])ccc21; X2 = NC(=O)COCC(=O)NCCOCCOCCOCCN*
# Test: in vitro
# Conditions: blood plasma
# Experimental: Protein Binding Analysis of Dye Conjugates Containing 1, 2 and 4 Sulphonic Acid Groups
# An analysis of protein binding of the dye conjugates of the invention was performed by an equilibrium dialysis and rate dialysis as described in the book “Protein-Ligand Interactions: Hydrodynamics and calorimetry”, edited by Stephen E. Harding and Babur Z. Chowdhry, Oxford University Press, published 2001, chapter 2 by Bent Honoré, Department of Medical Biochemisty, University of Aarhus.
row,SMILES,fraction unbound
1,"C[N+]1=C(/C=C/C=C/C=C2/N(CCCCCC(=O)NCCCC[C@@H]3NC(=O)CSC[C@@H](C(=O)NCCOCCOCCOCCNC(=O)COCC(N)=O)NC(=O)[C@H](Cc4ccccc4)NC(=O)[C@@H]4CSSC[C@H](NC3=O)C(=O)N[C@@H](CCCNC(=N)N)C(=O)NCC(=O)N[C@@H](CC(=O)O)C(=O)N4)c3ccccc3C2(C)C)C(C)(C)c2cc(S(=O)(=O)[O-])ccc21 [Compound A, Cys2-6; c[CH2CO-Lys(Cy5 mono-SO3)-Cys-Arg-Gly-Asp-Cys-Phe-Cys]-(PEG)n-NH2 (n=1)] ({CH2CO}-K(X3)CRGDCFC-X2; disulfide 2-6; thioether N-8)",0.83
2,"CC[N+]1=C(/C=C/C=C/C=C2/N(CCCCCC(=O)NCCCC[C@@H]3NC(=O)CSC[C@@H](C(=O)NCCOCCOCCOCCNC(=O)COCC(N)=O)NC(=O)[C@H](Cc4ccccc4)NC(=O)[C@@H]4CSSC[C@H](NC3=O)C(=O)N[C@@H](CCCNC(=N)N)C(=O)NCC(=O)N[C@@H](CC(=O)O)C(=O)N4)c3ccc(S(=O)(=O)O)cc3C2(C)C)C(C)(C)c2cc(S(=O)(=O)[O-])ccc21 [Compound B, Cys2-6; c[CH2CO-Lys(Cy5 bis-SO3)-Cys-Arg-Gly-Asp-Cys-Phe-Cys]-(PEG)n-NH2 (n=1)] ({CH2CO}-K(X1)CRGDCFC-X2; disulfide 2-6; thioether N-8)",0.79
3,CC[N+]1=C(/C=C/C=C/C=C2/N(CCCCCC(=O)NCCCC[C@@H]3NC(=O)CSC[C@@H](C(=O)NCCOCCOCCOCCNC(=O)COCC(N)=O)NC(=O)[C@H](Cc4ccccc4)NC(=O)[C@@H]4CSSC[C@H](NC3=O)C(=O)N[C@@H](CCCNC(=N)N)C(=O)NCC(=O)N[C@@H](CC(=O)O)C(=O)N4)c3ccc4c(S(=O)(=O)O)cc(S(=O)(=O)O)cc4c3C2(C)C)C(C)(C)c2c1ccc1c(S(=O)(=O)O)cc(S(=O)(=O)O)cc21 [Compound C],0.55
